Laboratory results from paper PMC9332313, “Folding and Binding Mechanisms of the SH2 Domain from Crkl” (Biomolecules, 2022).

How the values were obtained:
[1] = biological target: His60 (UniProt position 60, NSRVSHYIINS); assay: kinetics (stopped-flow fluorescence binding and displacement); conditions: 283 K; 0.5 M NaCl plus 50 mM buffer; 50 mM sodium-acetate pH 5.0 and 5.5; 50 mM BisTRIS pH 6.0 and 6.8; 50 mM sodium-HEPES pH 7.5; 50 mM TrisHCl pH 8.0, 8.5 and 9.0; Binding reaction with dansyl-Pax112-123 phosphopeptide. The pKa comes from both association and dissociation rate constants, so no free or bound state is specified.
[2] = biological target: dansylated Pax_(112–123) peptide (Dans-GEEEHV-pY-SFPNK); assay: stopped-flow fluorescence displacement kinetics (FRET); complex of 2 µM H60A mutant and 20 µM dansyl-Pax112-123 mixed with excess non-dansylated Pax112-123 (40 μM); 283 K; pH 5.5
[3] = biological target: dansylated Pax_(112–123) peptide (Dans-GEEEHV-pY-SFPNK); assay: stopped-flow fluorescence displacement kinetics (FRET); complex of 2 µM H60A mutant and 20 µM dansyl-Pax112-123 mixed with excess non-dansylated Pax112-123 (40 μM); 283 K; pH 6.8
[4] = biological target: dansylated Pax_(112–123) peptide (Dans-GEEEHV-pY-SFPNK); assay: stopped-flow fluorescence displacement kinetics (FRET); complex of 2 µM H60A mutant and 20 µM dansyl-Pax112-123 mixed with excess non-dansylated Pax112-123 (40 μM); 283 K; pH 7.5

Substance | pKa [1] | koff [2] [s⁻¹] | koff [3] [s⁻¹] | koff [4] [s⁻¹]
Crk-like protein (Crkl) SH2 domain (Homo sapiens (inferred; not stated in the article)) | 7.1 ± 0.2 | – | – | –
SH2 domain of Crkl protein (residues 1-111), H60A variant (from UniProt P46109 1-111) (domain or fragment) | – | 212 | 152 | 237
